Results: a protein production outcome set (Wang et al. 2014)

Test: label from the status in PepcDB records

Sequence	protein production
ASTVHEMGVFASLDDAVAAAKRAQQGLKSVAMRQLAIHAIREAGEKHARELAELAVSETGMGRVDDKFAKNVAQARGTPGVECLSPQVLTGDNGLTLIENAPWGVVASVTPSTNPAATVINNAISLIAAGNSVVFAPHPAAKKVSQRAITLLNQAVVAAGGPENLLVTVANPDIETAQRLFKYPGIGLLVVTGGEAVVDAARKHTNKRLIAAGAGNPPVVVDETADLPRAAQSIVKGASFDNN	failed
MPPTQAESVIRSIIREIGQECAAHGEIVSETLIAFMVKAVVLDPSNGFNMDRTLMKSDVQNLVKLCMTRLLDTKNPSLDTIKMQVYFDMNYTNRVEFLEEHHRVLESRLGSVTREITDNRACAKEELESLYRKIISYVLLRSGLGSPTDIKTVREVTAALQSVFPQAELGTFLTLSKKDKERQLKELTMIVTGIRLFNRDCGKGGEGIDDLPAVLHVAIPATMQHIDYQLETARSQVYRYTAILEKAANDPLMRAELQPYMLKEALYNIRQYEVFLQIILSDIITGAQEVEMMTKQLGAHLEQLKMTIKSKIAVPTSQVFPIFIALSTLWTSLQDETIVVGVLSNLFTHIQPFLGAHELYFPERVMQCHLNGATVKTDVCRMKEHMEDRVNVADFRKLEWLFPETTANFDKLLIQYRGFCAYTFAATDGLLLPGNPAIGILKYKEKYYTFNSKDAAYSFAENPEHYIDIVREKAKKNTELIQLLELHQQFETFIPYSQMRDADKHYIKPITKCESSTQTNTHILPPTIVRSYEWNEWELRRKAIKLANLRQKVTHSVQTDLSHLRRENCSQVYPPKDTSTQSMREDSTGVPRPQIYLAGLRGGKSEITDEVKVNLTRDVDET	failed
MGEKPGTRVFKKSSPNCKLTVYLGKRDFVDHLDKVDPVDGVVLVDPDYLKDRKVFVTLTCAFRYGREDLDVLGLSFRKDLFIATYQAFPPVPNPPRPPTRLQDRLLRKLGQHAHPFFFTIPQNLPCSVTLQPGPEDTGKACGVDFEIRAFCAKSLEEKSHKRNSVRLVIRKVQFAPEKPGP	failed
MSKNYQVLAKKIIDIVGVDNVESVTHCQTRLRFVVKDPKQIDKAALEDLDEVKGVFFGSGQYQVIIGTGVVNDVYDAIEKLHLVNAIYSQETTTTPTPDNQKSPLQRFMAMLSGIFIPIIPVIAATGLFLGLQSALTNNQVLQLFGTSSAAIPASLNTVISVLTGTVFSFLPALIVWSTFRYFKGTPIVGIVIGLMLVSPSLPNAYSVAGGTAKAIMLFDRIPVIGSQGSVLTALVAGFLGSKLEHYFHKHVPNVLDQILTPFLTMLVTFGIMILGVGPVVHWIENVMISGVEGLINLPFGIGGFLIGAAYPLMVLVGIHQMMIAIETSLLAATKLNPLITLEAMYGFANLGVALAMILRAKSQKAKANFIGAFSSQLFGVSEPTLFGVLIRYNFKPLVVTVLTSGIGAGVLSVMSVAANSYGLAVVPSYLMYIYNVRDLLIYTVVSLLTVAVAFIATNMFAIPKDILKSDQVQPKIVDDTIFSPVSGKSIALSTVNDPVFASKMMGDGIAIKPQEQGPVKVYAPQSGQMSVVADTGHAYGLTTNNGVELLIHIGIDTVSLKGQGFKVIVKPGQTVQKGDLLGEFDSTVLKAANLDDTVMVIVTNSKNYQRIESEPNQSIQSGAALLAIQGRPEMTTATAS	failed
MASEVVRDSLWRYFAEFVGTFILMLFGDGAVVASLVTNGTSPGYGFIMISWGFGVVLAIYAVGPISGAHINPNVTLAFAVTKRMKWRDVIPYILFQTLGAAAAAGILLAWWGSIITKMDPPPTLYAQVGASFFTEYPNPSFWGQYWPKELLLPNSASGTSLFSEVNQVFPLWIGAFAELLMTFLLLLIVLAVTDTDSPFFNQSLAPWAIGIGYVMPFLLFEAQLTGGMINEARSWGPMLALYLFGYRTGAFNFRGQYFFVYGIPDFIGGILGALFWDYVLKPYLKYLKSNNKK	failed
MGKMRTPQEVPARLDALAEAARKLKFDVREPVDAGAGAIGAVHSLDYLRFLREAHARWKQLPDDWGDEVVSNVFVREPNALRGVLAQAARYLADGSCPVGPHTWQSAYWAAQCAISGAQTLLDGERHAYALCRPPGHHARRDAAGGFCYLNNAAIAAQMLTQRYKRVAILDTDMHHGQGIQEIFYERSDVLYVSIHGDPENFYPVVAGFENERGAGEGYGYNVNLPMPHGSPEPVFFDRLQQAQRAIELFQPDALVLSLGFDVFEKDPQAMVAVSANGFERLGQAIGAFKLPTLIVQEGGYYIEGLEDNAERFFAGLAKALEHHHHHH	failed
PGQVIGLFGGSFDPPHAGHVHVTREALKMFGLDRVWWLVTPGNPLKAHGPAPLDRRMEAARAMMRHPRVDVTDIEAHLGTRVTADTIAALRRIYPRVRFVWLMGADNLAQLHRWKDWRQIIETVPVGVLARPGDRISARMSPAARAYAPYRIDGQARHLLGRAEAPAWCFVNVPMVDVSSTRIRAAGGWSAAQQGR	failed
MDISILQAVLIGLWTAFCFSGMLLGLYTNRCIVLSLGVGVILGDIQTALAVGAISELAYMGFGVGAGGTVPPNPIGPGIFGTLMAITTAGTKGKITPEAALALSTPIAVGIQFLQTATYTAFAGAPETAKKALQAGNFRGFKIAANGTIWAFAGLGFGLGVLGALSTQTLTDLFALIPPVLLNGLTLAGKMLPAIGFAMILSVMAKKELIPYILLGYVLAVYFGLPVLTPTANGDGVLTSVATNSVLGVPTIGVAIIATIFALLDIFRKPAAPTKETKTEGDNQDDWI	failed
MQHSTLEPSTSLDVPSCIPRVSRYPRVKDVIARKYRLVVKTIGYIGWSLFWLLIWDVLVTIDFMLFLNSKFTLPLIPLTLLGSALVVLVSFRNSSAYSRWWEARTLWGALVNSSRSFARQTLTLIDDPDDGLNPVKATLLRRHIAYVNCLAAHLKGESCPEELMAFIPPAEFERRNRSNNFANDILGGSAALLAREYQAGRLDSIRLARLESTLVDLSNAQGGMERIANTPLPYPYVYFPRLFITLFCLIVPVGLVESLGWFTPLASTVVGFMLLAIERIGTDLQSPFRFSEHQIQMDTICETIERNLESMQREAQCAEAVDA	failed
MAKKWQQRAALRRKRISFHRSTDTTSSSTAAEKGCFVVYTSDRIRFAFPISYLSNSVIQELLKISEEEFGIPTEGPITLPFDSVFLEYLIRLVQRRMDGDTEKALITSISSTRCSLPCSFQLQEHSSTRLVF	failed
MSNDLINGSILHCLETASLGMPLEVWKTRMCVYRNENTIKSFKNIYNKGLGQFYAGFYAKLIESGSKGAVLLLSKEQIIKVCNDMNINKTTSGFIGGACGGICQSLVMTPCTFFITASIDKKINYKEKLIHIFKNTGITTLYKGNTAMCLRQGTNWASRQGITEWIRNIVMERKKNRKNKNDDINNVKGMIFSGNDITTDKIKHNNNNNNNNNTSQSKSLELTTSEELFCGIVGGALSVWNNPFDVVRVYMQNNANKNIKLTFFQSFIHLYKEGGILYLYKGVIPRCFLCIWQTLFMVTGIKILNKYF	failed
MRLVIHGKNIDITDGIRSYLNQKIERATSHFQNVINEVDVHLSVARNRSTAPKQTAEVTVFVNGSVIRAEESSENLYASIDLVADKIARKLRKLKEKRQDKSRAKDTNSVVEPEVVTDLVGDRTPQLPEQVVRMKYFAMPPMTIQEALEHLEMVDHDFYVFRNRDTGEINVVYERNHGGYGVIQPRPTSNNHHHNTADAAAKATAKAGPLEHHHHHH	not failed
SPAYQEDREEDTCTIGEREKTIATQRIKGFGVENPVLPESPPASMSSVMKNNPLYGDITLEEAMEERKKSPSWTIEEYDKHSVHTNLSGHLKENPNDLRFWLGDTYTPGFDTLLKKKKKRNKRSKLCHMGLILLLVASILVTIVTLSTIFS	failed
MGEKVSIILTSYNKPDYLQKAIESVIQQTHDLWELFIMDDHSNAETTAVIHKYLHDRRIQYHNSFVHPADRLKTARYATLINSALPFADGDYISYLTDDTVYHPERLSRMVQEFSHKPEAQAVYSKQKVVHVNERGEEISHFYRNANAVLDQAAFQVDHCSVMHRRSLLNLIHHKFGGYWDDDMKHWNHGDAIFWARLNNFTPFLPINEVLDTTYKTPDSFQNAYRFLPADLIDGSFVKGSDQNVYFFDQGVRHPVGEKWGFLYLNRTVAVPDPYLFQYRIGKILNIPNYILVKEADHPAIFYIEAGKKRRIVDQYAFQFYQFQRKDIVTIGKEEMETLPEGPPITWKRSELIKNPPGRRLFFIEREPFLFLNGVFHPISEQVTRKFFLHQKPISASFRNIQQFPIGKPFYPVYDEIIKKLNIATELEHHHHHH	not failed
MSDGPLLNDVTRAFAEAHRNEDVRDLALKTKRTADLDLPAALDQIAGWQIARNKLPQWAACADIVYPAHISMEQCSSQFTAQYKAEIARRLLRSLPQSAGQTANDATMTDLTGGFGVDFSYLARGFGHATYVERQSHLCELAAHNMAALGLTQAQVVCGDGVEYLRAMEPAQLIYIDPARRDEHGARTYAIEDCTPDVLALRDLLLAKARYVMIKLSPMLDWRKAVDDFAGTVAEVHIVSTGNECKELLLVLDGKAAGATSDAAAADTRAPHVYCVNDDQRLDYDAAAYTRGLRIGDAPLPHELRYLYEPNASIMKAGCFDVVEARFGAVQIGPSSHLFVSDEPVDGFPGRGFAIETIGGMGKKELKRLLSGLDRANIAVRNFPLTAPQLRKKLKLADGGDAYLFGTTMQGGDHVLIRTAKISR	failed
MERNRRRNADNNTVVDQGGVFFDGCDTDEAFGPSSRDVPFQHDSVKSKPNLYGGG	not failed
MVVRSLSVVGLGPAGAGAAAAASRLGVKPVIYEAMEKPGLKPCGRGLPIVDGGLPVSIPRDSILRRIRGARMYVDGEFLFEMKGFLDGYIVDKTVMLEAIAVEAGGEIHYRAKYKPGSSTVRLPGGGEARVEQGVFAGGHPYYGGAKIAAVQWIMKTGPRSDPVGDMLEIHFDTELLGYAYIFPKEEGFIEVGIGGFATPRELRERLESFIHKRSDLRELERVKLEGARIAIGGLDLGVVDGLVKAGEAAGFVLPLTGEGIRPSLISGYEAASALIEGGSPLEKLRSLPIARAVSMQKRILDLVAGMSVEERRSLLKSLTPRAHAEIALGMFRKHILLKELARSPRALSLLGLVTRLI	failed
MMKEFTPAPDSASIVSVTDRVKPVALGMGVTSVHFLGDRAAFVGGEENVAFVDSQGEITTVAVHGGGILSTASDGKRLVMGGDDGKVVSLDAKGEVTLLATDPKRRWIDAVALHADGAFAWSAGKTATVKSGKTEEKSLEVPSTVGGLAFAPKGLRLAIAHYNGATLWFPNMAASAEFLPWAGSHHAVTFSPDNKFLVTAMHEPALHGWRLADNRHMRMTGYPGRVRSMSWSAGGKALATSGADTVILWPFGSKDGPMGKEPAMLAPLQARVSVVACHPKNDILAAGYSDGTVLMVRLEDGAEILVRRNGTPPVAALAWNAKGTLLAFADENGDGGLLEL	failed
MALNTNQLFAYLNRGDIAEFKFSPLFTTLFFPNVATFSTQNIMLDTLDIEEVTMSAFCSPMVGSQVQRDKGYETSTIKPGYMKPKHEIDPTKTIMRMAGEDPAQLNDPTYRRMRLITGNMRRQINAIKARVEWLAVNAVTTGKNIIEGEGIERYEIDWKIPEKNIIEQADGKKWSEQDKETHYPIYDIELYADQAGCPANVMIMGAEVWRTLRSFKKFRELYDLSRGSESAAELACKNLGEVVSFKGYLGDLALIVYSGKYTDSDGTEKYFLEPDLLVLGNTNNKGLVAYGAIMDQEAVRTGATQNMFYPKNWIEDGDPAIEYVQTHSAPQPVPADIRKFVTVKIA	not failed
MIWSLLKIYVLMLCTISTVYNTFLLIVCVVGCCVQMEEIVFETKDAVDWSYRSEGVVNLVLAYSGSSPTFLGKVMRIKKLRNTRNENRDRSGSCLTTQEKLIWGEIKDLVSCQNKEIVDYLFVKHVMKPLLGHKYVTPGICLPVEKEFLESVKKIVTSQRHSWRANTLSVDTNRSFALLMDDLTIFSHGQVEDHKPCLTVEIKPKCGFLSSSSFIAEENVIKKSISRFEMYQVLKLRENQISQISEYDPLDLFSGSKDRIHKAIKALYSTPQNSLQVFLNGSLVFGGFRGGICKTTSKLELAFEHTLKDFFKTEDDCGLRANAFIELVAETVYASGALDQLLEVQKLDKYNIEGAIHAYYDLVDQPCKACQELESSKLSNQFGSMHSLPQDEKVNILKDFLISSTAIDCSVMISFRPIETGLSRSSSHGNIQLESTKQEFEYKIHFIDLDMRPLKRMEAYHESDKKITKTYQEMLKKKKGDQPRRF	failed
